Assay results reported in doi:10.1101/2023.07.10.548257 (bioRxiv, 2024).

Columns and labels:
[1] = biological target: MLH1 pTyr 293 L292P peptide THPFP-pY-LSLEI; test: peptide display screen (pTyr-Var Library); details: N = 2 independent library transformations and screens; parent: est. 2.9; read off a plot
[2] = biological target: SHP2 N-SH2 domain, wild type (N-SH2-Avi-biotin) (UniProt Q06124); test: peptide display screen (pTyr-Var Library); details: N = 2 independent library transformations and screens, read off a plot
[3] = biological target: ALDH2 pTyr 502 E504K peptide FGLQA-pY-TKVKT; test: peptide display screen (pTyr-Var Library); details: N = 2 independent library transformations and screens; parent: est. 1.3; read off a plot
SHP2 N-SH2^T42A domain = biological target: T1, SHP2 N-SH2^T42A domain (Homo sapiens, UniProt Q06124, T42A); test: Direct fluorescence polarization binding, N-SH2 T42A; details: direct fluorescence polarization with fluorescent peptide
T1 construct: SHP2 SH2 domains were cloned into a His6-SUMO-SH2-Avi construct; His6-SUMO (N, cleaved yes); made in house; host or cells: E. coli C43(DE3), co-expressed with BirA
T1 sequence (Q06124 6-102 T42A limits assumed): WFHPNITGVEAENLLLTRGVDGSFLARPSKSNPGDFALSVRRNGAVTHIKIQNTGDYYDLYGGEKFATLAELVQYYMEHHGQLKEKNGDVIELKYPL
Procedure: Fluorescence polarization binding assays
SH2 domains were thawed in room temperature water and their absorbance at 280 nm was measured to determine concentration. SH2 domains were serially diluted 15 times in assay buffer (60 mM HEPES pH 7.2, 75 mM KCl, 75 mM NaCl,1 mM EDTA, 0.05% Tween-20), with a 2x starting concentrations generally in the low micromolar range. […] The […]
fluorescent peptide was diluted to 2x the desired concentration and mixed in 1:1 ratio with the different concentrations of SH2 domain (specific fluorescent peptide concentrations can be found in Table S2).
The mixture was transferred to a black 96-well plate and incubated for 15 minutes at room temperature. Parallel and perpendicular measurements were taken using the 485/30 polarization cube on the BioTek Neo2 Plate Reader. Data was analyzed and fitted to a quadratic binding equation to determine the KD for the fluorescent peptide, according to previously established methods (2, 3). […]
P-values comparing affinities for different SH2 domains were calculated using an unpaired Welch’s t-test. […]
Right before starting the plate reader assay, 30 μL SHP2 was added to each well a Supplementary Information - page 4 of 18

[4] = biological target: MERTK pTyr 872 I871V peptide QADVV-pY-VNTQL; test: peptide display screen (pTyr-Var Library); details: N = 2 independent library transformations and screens; parent: est. 1.0; read off a plot

## Sm1; MLH1 pTyr 293 peptide THPFL-pY-LSLEI N-SH2: T42A; MLH1 peptide: L292P
[1]
  enrichment (fselected / finput): 8.6

## MLH1 pTyr 293 peptide THPFL-pY-LSLEI L292P
[2]; parent: est. 2.9
  enrichment (fselected / finput): 1.4

## MERTK pTyr 872 peptide QADVI-pY-VNTQL I871V
[2]; parent: est. 1.0
  enrichment (fselected / finput): 1

## Sm1; ALDH2 pTyr 502 peptide FGLQA-pY-TEVKT N-SH2: T42A; ALDH2 peptide: E504K
[3]
  enrichment (fselected / finput): 1.8

## CC[C@H](C)[C@H](NC(=O)[C@H](Cc1ccc(OP(=O)(O)O)cc1)NC(=O)[C@H](CC(N)=O)NC(=O)[C@H](CC(C)C)NC(=O)CNC(=O)[C@H](CC(N)=O)NC(=O)[C@H](CCC(=O)O)NC(=O)CCCCCNC(=S)Nc1ccc2c(c1)C(=O)OC21c2ccc(O)cc2Oc2cc(O)ccc21)C(=O)N[C@@H](CC(=O)O)C(=O)N[C@@H](CC(C)C)C(=O)N[C@@H](CC(=O)O)C(=O)N[C@@H](CC(C)C)C(N)=O
SHP2 N-SH2^T42A domain
  tighter binding of N-SH2^T42A compared to N-SH2^WT: 5 fold

## ALDH2 pTyr 502 peptide FGLQA-pY-TEVKT E504K
[2]; parent: est. 1.3
  enrichment (fselected / finput): 1.3

## Sm1; MERTK pTyr 872 peptide QADVI-pY-VNTQL N-SH2: T42A; MERTK peptide: I871V
[4]
  enrichment (fselected / finput): 3.8
